Consider six molecules from US7012133 (CHILDREN S MEDICAL CENTER, dated 2006).

T1: C-C chemokine receptor 3 (CCR3, CKR-3) of human origin, native, on blood eosinophils and basophils (human, UniProt P51677 1-355)
T1 construct: whole, on cells; also called Eos L2 receptor; eosinophilic chemokine receptor
T1 sequence (looked up): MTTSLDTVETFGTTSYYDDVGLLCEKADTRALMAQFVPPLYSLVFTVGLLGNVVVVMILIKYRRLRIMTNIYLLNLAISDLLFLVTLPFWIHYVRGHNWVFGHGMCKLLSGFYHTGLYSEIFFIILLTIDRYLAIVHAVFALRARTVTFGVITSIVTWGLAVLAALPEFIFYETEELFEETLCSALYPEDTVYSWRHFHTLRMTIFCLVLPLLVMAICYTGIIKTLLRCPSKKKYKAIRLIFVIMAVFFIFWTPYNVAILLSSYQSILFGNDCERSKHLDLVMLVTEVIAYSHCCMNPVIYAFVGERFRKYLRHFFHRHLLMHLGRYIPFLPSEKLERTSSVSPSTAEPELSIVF

T2: receptor encoded by the A31 cDNA clone (human CKR-3 / Eos L2) (human, UniProt P51677 1-355)
T2 construct: one RBL transfectant is also mentioned
T2 sequence: T1 sequence (looked up)

T3: CCR1 on stable L1.2 transfectants (UniProt P32246 1-355, limits assumed)
T3 construct: whole, on cells; also called CKR-1; CC CKR1
T3 sequence (looked up): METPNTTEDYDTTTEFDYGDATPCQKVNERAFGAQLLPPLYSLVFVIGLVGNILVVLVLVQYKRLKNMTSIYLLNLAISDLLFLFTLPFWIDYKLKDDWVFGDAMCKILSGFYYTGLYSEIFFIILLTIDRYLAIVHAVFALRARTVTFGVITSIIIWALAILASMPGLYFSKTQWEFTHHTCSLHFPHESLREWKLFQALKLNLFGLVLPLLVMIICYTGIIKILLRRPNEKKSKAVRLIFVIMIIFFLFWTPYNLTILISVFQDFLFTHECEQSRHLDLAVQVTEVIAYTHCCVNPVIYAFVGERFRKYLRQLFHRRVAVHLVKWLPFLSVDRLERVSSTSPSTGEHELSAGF

B1: human eotaxin (ligand)
chain: not shown
modifications: 125I label (Bolton Hunter reagent) where used as radioligand
B2: monoclonal antibody 7B11 (ATCC Accession No. HB-12195) (antibody, V domains shown)
VH: MVQLQQSGTVLARPGASVRMSCKTSGYTFTNYRMHWVRQRPGQGLEWIGSIYPGHTETTYNQNFKDKAKLTAVTSATTAYMGLSSLTNEDSAVYYCTRSGGNYWGQGTTVTVSS
VL: DIQMTQSPSSLSASLGERVSLTCRASQDIGSSLNWLQQKPDGTFIRLIYATSSLDSGVPRRFSGSRSGSDYSLTISSLESEDFVDYYCLQYATFPLTFGAGTKLEIK
B3: MCP-3 (ligand)
chain: not shown
modifications: 125I label where used as radioligand
notes: also called human MCP-3
B4: RANTES (ligand, human, UniProt P13501 24-91, looked up)
chain: SPYSSDTTPCCFAYIARPLPRAHIKEYFYTSGKCSNPAVVFVTRKNRQVCANPEKKWVREYINSLEMS
modifications: also: 125I label where used as radioligand
notes: also called cold RANTES
B5: FLAG-tagged Eos L2 (CKR-3) receptor (receptor)
chain: MDYKDDDDKEFTTSLDTVETFGTTSYYDDVGLLCEKADTRALMAQFVPPLYSLVFTFGLLGNVVVVMILIKYRRLRIMTNIYLLNLAISDLLFLVTLPFWIHYVRGHNWVFGHGMCKLLSGFYHTGLYSEIFFIILLTIDRYLAIVHAVFALRARTVTFGVITSIVTWGLAVLAALPEFIFYETEELFEETLCSALYPEDTVYSWRHFHTLRMTIFCLVLPLLVMAICYTGIIKTLLRCPSKKKYKAIRLIFVIMAVFFIFWTPYNVAILLSSYQSILFGNDCERTKHLDLVMLVTEVIAYSHCCMNPVIYAFVGERFRKYLRHFFHRHLLMHLGRYIPFLPSEKLERTSSVSPSTAEPELSIVF
notes: Receptor from the 1.8 kb genomic HindIII fragment, expressed on L1.2 (L1-2) pre-B cells, 293 cells or baculovirus-infected Sf9 cells; also called Eos L2 receptor fusion protein; CKR-3/pcDNA3 product
B6: MIP-1α (ligand, human, UniProt P10147 23-92, looked up)
chain: ASLAADTPTACCFSYTSRQIPQNFIADYFETSSQCSKPGVIFLTKRSRQVCADPSEEWVQKYVSDLELSA
modifications: also: 125I label where used as radioligand
notes: also called macrophage inflammatory protein 1α

Experiment [1] addresses T1, C-C chemokine receptor 3 (CCR3, CKR-3) …. Put plainly: Scatchard analysis of unlabeled eotaxin competition on human eosinophils. The procedure:
(§1) FIG. 11A) or to human eosinophils (FIG. 11B). […] After 60 minutes at room temperature, cell pellets were washed and counted. Scatchard plots of unlabeled eotaxin competition were calculated from the data (FIG. 11C, E5 cell line; FIG. 11D, eosinophils).
(§2) Competition is presented as the percentage of specific binding as calculated by $100(S-B)/(T-B)$, where S is the radioactivity of the sample, B as background binding and T as total binding without competitors. Background binding was obtained by incubating cells with radiolabeled chemokine and at least 400-fold excess of unlabeled chemokines. […] Duplicates were used throughout the experiments and the standard deviations were always less than 10% of the mean. All experiments were repeated at least three times. Curve fit was calculated by […] software.
(§3) The E5 cell line described in Example 6 was tested for its ability to bind radiolabeled eotaxin. […] In addition, both RANTES and MCP-3 were able to specifically compete for binding. None of the other chemokines tested, including MIP-1α, MIP-1β, or IL-8 were able to specifically compete for radiolabeled ligand (FIG. 12).

Experiment [2] has the same target. Description: inhibition of 0.1 nM 125I-MCP-3 binding to human eosinophils by varied 7B11.
Experiment [3] shares this target. Put plainly: inhibition of 0.1 nM 125I-RANTES binding to human eosinophils by varied 7B11.
Experiment [4] shares this target. Description: inhibition of 0.1 nM 125I-eotaxin binding to human eosinophils by varied 7B11.
Experiment [5] shares this target. Description: heterologous competition of radiolabeled RANTES binding on eosinophils. On the procedure:
(§4) Cells transfected with Eos L2 receptors or normal human eosinophils purified (see above) were washed in Hanks Balanced Saline Solution (HBSS), then resuspended in binding buffer: 50 mM HEPES, 1 mM CaCl_2, 5 mM MgCl_2, 0.5% Bovine Serum Albumin (BSA), pH 7.3. In microfuge tubes, 5 ×10^5 cells were incubated with 0.1 nM radiolabeled chemokine (purchased from New England Nuclear, Massachusetts) in 200 µl aliquots at room temperature for 60 minutes. The cells were either incubated with radiolabeled chemokine alone, or together with unlabeled chemokines (from PeproTech) as competitors, which were used at the indicated concentrations. At the end of incubation, cells were washed 3 times in the binding buffer, each wash consisting of centrifugation in a microfuge at 7,000×g for 2 minutes. After the wash, the pellets were transferred into LP3 tubes and the radioactivity of the cells, which represented the amount of binding was measured in a gamma counter. All samples were in duplicates and all the experiments were repeated at least 3 times. Scatchard Plot was calculated from the binding data by MicroSoft Excell and CricketGraph on a Macintosh computer.
Figure 6: FIG. 6 is a histogram illustrating the binding of RANTES and MIP-1α to human eosinophils. […] Human eosinophils were incubated with 0.1 nM radiolabeled RANTES and the indicated concentrations of cold chemokines. […]

Experiment [6] addresses T2, receptor encoded by the A31 cDNA clone …. Description: Scatchard analysis, 125I-RANTES on membranes of A31-293-#20 cells. The procedure: Plates were grown to confluence, and membranes were prepared as follows. Culture medium was removed, and the cells were washed with phosphate buffered saline. Cells were harvested by washing with TEN (40 mM TRIS, pH 7.5, 1 mM EDTA, and 150 mM NaCl). The cells were frozen in liquid nitrogen, thawed at room temperature, and the membrane fraction was collected by centrifugation in a conical tube for 10 minutes at 18,000 rpm. Each binding point was determined using one-half of the membranes harvested from a single 100 mm plate grown to confluence.
Binding assays were performed as described by Van Riper, G. et al., J. Exp. Med., 177: 851 (1993), with the following modifications. […] Binding buffer was 50 mM Hepes, 1 mM CaCl_2, 5 mM MgCl_2, 0.5% BSA, pH 7.2. Radiolabeled and cold ligand were added simultaneously to the membranes (see above), and incubated for 1.5 hours at room temperature. […] Activity retained on filters after washing was determined by scintillation counting. Filters were placed in 5 cc of scintillation fluid and were then counted in a miniaxi-beta liquid scintillation counter (United Technologies, Packard, Downers Grove, Ill.). All points were determined in triplicate, except for the point at 2 nM, which was determined in duplicate. […]

The target of experiment [7] is T3, CCR1 on stable L1.2 transfectants. Put plainly: 125I-RANTES binding to L1.2 CCR1 transfectants.
Experiment [8] concerns the target T1, C-C chemokine receptor 3 (CCR3, CKR-3) …. Description: Scatchard analysis, radioligand binding to human eosinophils. On the procedure: as §4, with “In” for “Cells transfected with Eos L2 receptors or normal human eosinophils purified (see above) were washed in Hanks Balanced Saline Solution (HBSS), then resuspended in binding buffer: 50 mM HEPES, 1 mM CaCl_2, 5 mM MgCl_2, 0.5% Bovine Serum Albumin (BSA), pH 7.3. In”
(§5) Figure 6: FIG. 6 is a histogram illustrating the binding of RANTES and MIP-1α to human eosinophils. […] Human eosinophils were incubated with 0.1 nM radiolabeled RANTES and the indicated concentrations of cold chemokines. The data plotted are the means and standard deviations of duplicates for each sample.

The target in experiment [9] is B1. Put plainly: Scatchard analysis of unlabeled eotaxin competition on E5 cells. On the procedure: as §1, §2, §3
For experiment [10], the target named is T4, MIP-1α binding sites on human eosinophils.
T4 construct: also called receptor for MIP-1α on eosinophils
Description: Scatchard analysis, radioligand binding to human eosinophils. The procedure: as §4, with “In” for “Cells transfected with Eos L2 receptors or normal human eosinophils purified (see above) were washed in Hanks Balanced Saline Solution (HBSS), then resuspended in binding buffer: 50 mM HEPES, 1 mM CaCl_2, 5 mM MgCl_2, 0.5% Bovine Serum Albumin (BSA), pH 7.3. In”
as §5

By Kd is commonly meant the concentration at which binding is half-saturated. Read a high Kd as weaker binding. What is called IC50 is the concentration at which inhibition is half-maximal. A low value points to inhibition by little substance.

Turning to B1, binding in experiment [1] was characterised by a dissociation constant (Kd) of 0.5 nM.

Turning to B2, the concentration for half-maximal inhibition (IC50) came to 0.0188 µg/mL in experiment [2], 0.0137 µg/mL in experiment [3] and 0.0257 µg/mL in [4].

As to B3, the binding result in [5] is given as “binds”.

For the molecule B4, the Kd is roughly 2.5 nM in [6] and 0.883 nM in experiment [8]. In experiment [7], the binding result is “binds”.

For B5, binding in experiment [9] was characterised by a dissociation constant (Kd) of 1.5 nM.

For the molecule B6, binding in experiment [10] was put at a Kd of 0.091 nM.
